Measurements reported in patent publication EP3574020B1 (The University of British Columbia, dated 2024).
Each block holds one binder with its values, some of them ahead of it.

Tests used:
[1] = target: T1, cyclo(CGHHQKG) cyclic peptide, conjugated to BSA (also: conjugated to BSA, site not given here); test: SPR; immobilized antibody pre-exposed to the cyclic peptide
T1 construct: BSA is the carrier used for screening; also called cyclopeptide; Cyclo-BSA
T1 peptide: cyclo(CGHHQKG)

[2] = target: T1, cyclo(CGHHQKG) cyclic peptide, …; test: ProteOn biosensor; antibody amine-coupled to GLH chip, cyclo-BSA 9 nM to 111 pM
[3] = target: T2, commercially-prepared stable A-beta42 Oligomers (SynAging) (human); test: ProteOn biosensor; antibody captured with anti-mouse IgG or amine-coupled, AbO dilutions injected
T2 construct: Bought oligomer preparation; also called AbO; SynAging AbO
T2 sequence (peptide, as listed by the source): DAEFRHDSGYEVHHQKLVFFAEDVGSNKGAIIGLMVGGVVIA

[4] = target: T1, cyclo(CGHHQKG) cyclic peptide, …; test: single cycle Biacore analysis

B3: 301-17 mouse monoclonal antibody, hybridoma-purified IgG3 (antibody, V domains shown)
VH: QVQLQQPGAELVKPGASVKMSCKASGYSFTSYWINWVKQRPGQGLEWIGDVHPGRGVSTYNAKFKSKATLTLDTSSSTAYMQLSSLTSEDSAVYYCSRSHGNTYWFFDVWGAGTTVTVSSATTTAPS
VL: DVLMTQTPLSLPVSLGDQASISCRSSQSIVHSNGNTYLEWYLQKPGQSPKLLIYKVSNRFSGVPDRFSGSGSGTDFTLKISRVEAEDLGVYYCFQGSHVPFTFGSGTKLEIKRADA
notes: mouse IgG3 / kappa; also called mu301-17
- Kd [4]: 0.4 nM
- Kd [3]: 26.9 nM

B4: Chimeric 301-17 antibody (VH0 Vk0), mouse variable regions on human IgG4 / kappa (antibody)
heavy: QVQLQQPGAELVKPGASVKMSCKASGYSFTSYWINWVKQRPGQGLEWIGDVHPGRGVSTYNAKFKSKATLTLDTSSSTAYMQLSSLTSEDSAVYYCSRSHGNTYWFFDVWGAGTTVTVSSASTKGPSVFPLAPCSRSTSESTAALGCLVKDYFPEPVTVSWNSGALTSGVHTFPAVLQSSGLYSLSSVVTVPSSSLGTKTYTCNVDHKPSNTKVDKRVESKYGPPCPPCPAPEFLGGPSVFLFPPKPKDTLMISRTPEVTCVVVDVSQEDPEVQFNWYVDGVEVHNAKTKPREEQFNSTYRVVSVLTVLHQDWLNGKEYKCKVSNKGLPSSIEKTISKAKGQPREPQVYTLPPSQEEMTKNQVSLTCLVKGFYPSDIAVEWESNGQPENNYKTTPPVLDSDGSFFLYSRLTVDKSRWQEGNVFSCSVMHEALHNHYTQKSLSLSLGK
light: DVLMTQTPLSLPVSLGDQASISCRSSQSIVHSNGNTYLEWYLQKPGQSPKLLIYKVSNRFSGVPDRFSGSGSGTDFTLKISRVEAEDLGVYYCFQGSHVPFTFGSGTKLEIKRTVAAPSVFIFPPSDEQLKSGTASVVCLLNNFYPREAKVQWKVDNALQSGNSQESVTEQDSKDSTYSLSSTLTLSKADYEKHKVYACEVTHQGLSSPVTKSFNRGEC
notes: also called V0H0 and V0k0
- Kd [4]: ~0.02 nM

Further lines, results first:

- binding result [1]: binds
B1: Humanized antibody of 301-17 (VH2 Vk5), human IgG4 (S241P hinge variant) / kappa (antibody, V domains shown)
VH: QVQLVQSGAEVKKPGASVKMSCKASGYSFTSYWINWVKQRPGQGLEWIGDVHPGRGVSTYNAKFKSRATLTLDTSISTAYMELSSLRSEDTAVYYCSRSHGNTYWFFDVWGQGTTVTVSS
VL: DVLMTQSPLSLPVTLGQPASISCRSSQSIVHSNGNTYLEWYQQRPGQSPRLLIYKVSNRFSGVPDRFSGSGSGTDFTLKISRVEAEDVGVYYCFQGSHVPFTFGQGTKLEIKR
notes: also called hu301-17

- Kd [2]: ~0.017 nM
- Kd [3]: 16.2 to 19.5 nM
B2: Recombinant 301-17 IgG2a (murine IgG2a backbone) (antibody)
heavy: QVQLQQPGAELVKPGASVKMSCKASGYSFTSYWINWVKQRPGQGLEWIGDVHPGRGVSTYNAKFKSKATLTLDTSSSTAYMQLSSLTSEDSAVYYCSRSHGNTYWFFDVWGAGTTVTVSSAKTTAPSVYPLAPVCGDTTGSSVTLGCLVKGYFPEPVTLTWNSGSLSSGVHTFPAVLQSDLYTLSSSVTVTSSTWPSQSITCNVAHPASSTKVDKKIEPRGPTIKPCPPCKCPAPNLLGGPSVFIFPPKIKDVLMISLSPIVTCVVVDVSEDDPDVQISWFVNNVEVHTAQTQTHREDYNSTLRVVSALPIQHQDWMSGKEFKCKVNNKDLPAPIERTISKPKGSVRAPQVYVLPPPEEEMTKKQVTLTCMVTDFMPEDIYVEWTNNGKTELNYKNTEPVLDSDGSYFMYSKLRVEKKNWVERNSYSCSVVHEGLHNHHTTKSFSRTPGK
light: DVLMTQTPLSLPVSLGDQASISCRSSQSIVHSNGNTYLEWYLQKPGQSPKLLIYKVSNRFSGVPDRFSGSGSGTDFTLKISRVEAEDLGVYYCFQGSHVPFTFGSGTKLEIKRADAAPTVSIFPPSSEQLTSGGASVVCFLNNFYPKDINVKWKIDGSERQNGVLNSWTDQDSKDSTYSMSSTLTLTKDEYERHNSYTCEATHKTSTSPIVKSFNRNEC
